Measurements reported in the DeepSol protein solubility set.

Assay: soluble on expression in E. coli; label from the status in PepcDB or PDB records

| Sequence | soluble on expression in E. coli |
| --- | --- |
| MGSDKIHHHHHHMKHIEDNAGSERKPLAGAAKSVPAVAADKPYHRKNLREDLLRSALELTVERDGPAFSLRELAMREKVSHTAVYRHFSDKASLFAELSSEGFRQLALYQNRTIEAPDLPPLARLEQMGATYVRFAMENVGFFRVMFDVNLAGEWEEARKGERTAFGNLVGLVRQCQSEGDIIDADPRAIATYLVLSPHGLAHFNNIGHLTHLLQTSMTLDQLATQVFRLTLAPFLTKPYSEQDVRALVNSIF | not soluble |
| MGSDKIHHHHHHMFKLIIVEDEHLIRKWLEIAVDYSALGIQVVGTASHGQEGMKLIQEKEPHIVLTDITMPIMDAFMMFEATRTLSYEKVILSGYNDFQNAKKAMQYGAVDFLSKPIDTKELTECLQKIVLRLRVSTRQETPFLEEYQTLLTSIQQIDTQNQIIQQILEFVHQHYCMHFTISSIAENLGYSESYLYKVIKEDFPMTLNEYILRYRLKQAIDKMAESPNSPLSDISEQIGFSDYKYFAKVFKKYLHISPKELKLMDKNH | not soluble |
| MNEKQADTLLNVPEIVKRAKIALNLKRDSELASYLGVARATLSNWCARNSIDFPLLLNKLRHVDYNWLLTGKGSPLHDPKSFDNGKIRGEVETIHNSKTTEAIDDRSVTLYDITAAANLRTLLSDKRQYALGKILIPSIPACDGAIFVNGDSMYPILKSGDIVGFKGINNFSNVIYGEMYIVAFHLDGDQYLTVKYVNRSEKEGYVKLVSYNPHHEPMDLPVDTIQDMAIVKFSIRKNMMM | not soluble |
| FNWDRAMYSLITYFLAYKVIDIVIQGVDESKSAFIISRYYEEIGAEIMEQLGKGVTYLDATGGYSGDVRKVVFVIVSRFEEVKVKAILDEIDPDAFLAVGGSMSEVRGGKLMNTKTPHL | not soluble |
| MTIPTSYLNHTDAEAARKARATYRDGLVAPTSGIAPGFTQANMIVLPRDWAFDFLLYAQRNPKPCPVLDVSDPGSPTTLLAPGADLRTDLPLYRIWRDGKLAEETADATSAWAERDDLVAFLIGCSFTFETPMVEAGIEIRHMTDKSNVPMYLTNRPCRPAGRLKGNMVVSMRPIPASRVADAATISGRFPAVHGAPVHVGAPEQIGISDLSKPDFGDAVRIEPGEVPVFWACGVTPQAAVMASGVPFAITHAPGHMFITDIPDTAYHALEHHHHHH | soluble |
| MGSDKIHHHHHHMTRRGMEFYEKAQELVKGFDIFQNQYANPEEEKDEFSIASQHYDFLPPTITAFSERYPDYKNFRIFESTTVQILDEVAQGHSEIGIIYLNNQNKKGIMQRVEKLGLEIIELISFHTHIYLREGHPLAQKEELVMEDLADLPTVRFTQEKDEYLYYSENFVDTSASSQMFNVTDRATLNGILERTDAYATGSGFLDSDSVNGITVIRLKDNLDNRMVYVKREEVELSQAGTLFVEVMQEYFNQKRKS | not soluble |
| MRVIVFFDLPVITPENRHNYSVFRKYLIKSGFIMQQKSVYSKLVLNLTNRDSIVKSIEKNKPPEGLVEVLTVTEKQYAKMEIIIGESKTEYLNTDERLVVLLEHHHHHH | soluble |
| GPGSMIHPMAVDRLLPSQEAAELIELTREIADKVLDPIVDRHEKDETYPEGVFEQLGAAGLLSLPQPEEWGGGGQPYEVYLQVLEEIAARWASVAVAVSVHSLSSHPLLVFGTEEQKKRWLPGMLSGEQIGAYSLSEPQAGSDAAALRCAATPTDGGYVINGSKSWITHGGKADFYTLFARTGEGSRGVSCFLVPADQPGLSFGKPEEKMGLHAVPTTSAFYDNARIDADRRIGEEGQGLQIAFSALDSGRLGIAAVATGLAQAALDEAVAYANERTAFGRKIIDHQGLGFLLADMAAAVATARATYLDAARRRDQGRPYSQQASIAKLTATDAAMKVTTDAVQVFGGVGYTRDYRVERYMREAKIMQIFEGTNQIQRLVIARGLTR | soluble |
| MHHHHHHSSGVDLGTENLYFQSMAWVIDKYGKNEVLRFTQNMMMPIIHYPNEVIVKVHAASVNPIDVNMRSGYGATALNMKRDPLHVKIKGEEFPLTLGRDVSGVVMECGLDVKYFKPGDEVWAAVPPWKQGTLSEFVVVSGNEVSHKPKSLTHTQAASLPYVALTAWSAINKVGGLNDKNCTGKRVLILGASGGVGTFAIQVMKAWDAHVTAVCSQDASELVRKLGADDVIDYKSGSVEEQLKSLKPFDFILDNVGGSTETWAPDFLKKWSGATYVTLVTPFLLNMDRLGIADGMLQTGVTVGSKALKHFWKGVHYRWAFFMASGPCLDDIAELVDAGKIRPVIEQTFPFSKVPEAFLKVERGHARGKTVINVV | soluble |
| SLAMAAGANVPLDKANVDLTDKASLQNGAKLFMNYCFACHSTQYQRYERVATDLDIPADLMKENLIFNPEAKIGDLMVNAMPPKQAANWFGAPPPDLTLVARVRGADWLYTYLRSFYVDPSRPFGVNNIVFPSVGMPHVLEELQGIPTPVYGTKMVDGEEVKVVVGTETNGTGELSEGEYDKAVGDLVNFLVYAGDP | not soluble |
| GPGSMAATTEVTPEHVLQLTAPSTGFLCPITANTYNIEFYSFVVRDADTKQVMFEVERDASTYPSVASLAQLPEEQQQAARTIFYRFPPSMLRKQRVSATLLFGVNGDKPVPDLRMIERHYFRNTLVKTFDFKFGFCIPHSRNTWEAVYDVPQFNAEWLEAIEKGTNEMTSDSFYFADGRLIMHNRAFYDYSAPEEEFTK | soluble |
| MGSSHHHHHHSSGLVPRGSHMASAVVQEVSAEAQAPAVVKNPPKLALKIDRADVNQLPRNFRMGSDKYVGVTKTGIMPTRKGMDTMNVSASSCFSEKELEAILKKVPVKPSQFYDVDLRGESHGYLNGTAVSWFANHDWGNDGRTEDIIIPLEKEQLASLKGSTVKSIYRFDDKKNVILSPVYVNYNKVRTEEEMVKQHGANYFRLTLQDHFRPDDPDVDKFLEFYKSLPKDAWLHYHCYAGMGRTTIFMVMHDILKNAKDVSFDDIIQRQKLIGIVDLSEIPDKKKNYGRKAYIERYQFVQHFYDYVKENPDLKTPYSVWAKKNKVNSWEPDYNGYIWRLDTKDRNQLPRNFRTMNSAFRTDVNVKKTGKGFTPTPTRKGLDTLYMSGSAEFSNGELQAMLPVLKQQAKGPIYIMDLRQETHGVFNGNAVSWYGLRDWGNLGKNKAEVLKDENSRLNAARGKSLIVAELDKDKMPIDPKPVKIESVMTEQQLVEKNGLHYYRIAATDHIWPSAANIDEFINFTRTMPANAWLHFHCQAGAGRTTAYMAMYDMMKNPDVSLGDILSRQYLLGGNYVAYEIAKPKPDQWKADYYHQKAHMIEKFYQYVQENHADGFKTSWSQWLAAHQDV | soluble |
| MSLHQFQQDNQYFIFNFDRTFEQATEFFQAEFWQKQERVIGSAKGRGITYFLQTEDWFGVNCALRHYYRGGLWGKLNKDRYRFSALETTRSFAEFHLLQRLYEAGLPVPKPIAARIQKGKLGICYQADILTEKIENAQDLTALLQTQTLPKETWMQIGRLIRKLHDLQICHTDLNAHNILLQQTEQGQKCWLLDFDKCGEKSADFWKVQNLNRLKRSFEKEVGRMNIQFTEQNWADLTSAYHQEGHHHHHH | soluble |
| MGSDKIHHHHHHMVKIKEGFKGERLVSLPEELLASYRREPLINNLYVRKIGFFPRVKYHFLQKEHGCDYAMLIYCTEGKGWYRILGKQYTVEKYQYIIIPPGIPYSFGADEGDPWTIYWLHFQGKLCDQFLPSHPVPVTISPNEYSRLQDRLRLFEEIYSSFSMGYIKEYMIYSSMCLYNFLASFIYLEQFRHIMIPSQKEYPFTARVIHYMRENIQQNLTLKELASYFKYSPSHFSALFFGETGVSPMNYFIRLKIQKACEYIELTNMKLNEIATHLGFEDAAYFSRTFTKVMGCSPSVYRKKEMEI | not soluble |
| MRGSHHHHHHGSPGLQEFMAATGANAEKAESHNDCPVRLLNPNIAKMKEDILYHFNLTTSRHNFPALFGDVKFVCVGGSPSRMKAFIRCVGAELGLDCPGRDYPNICAGTDRYAMYKVGPVLSVSHGMGIPSISIMLHELIKLLYYARCSNVTIIRIGTSGGIGLEPGTVVITEQAVDTCFKAEFEQIVLGKRVIRKTDLNKKLVQELLLCSAELSEFTTVVGNTMCTLDFYEGQGRLDGALCSYTEKDKQAYLEAAYAAGVRNIEMESSVFAAMCSACGLQAAVVCVTLLNRLEGDQISSPRNVLSEYQQRPQRLVSYFIKKKLSKA | soluble |
| MPGALSHIRVLDLSRVLAGPWAGQILADLGAEVIKIERPGSGDDTRAWGPPFLKDAEGNDTSEAAYYLSANRNKKSVTVDFTQPEGQRIVRELAAKADILLENFKVGGLKAYGLDYESLKQVNPKLIYCSITGFGQSGPYAKRAGYDFMIQGLGGLMSLTGRADNEEGAGPVKVGVALTDILTGLYSSTAVLAALAHRDVSGIGQHIDMALLDVQVACLANQTLNYLTTGVPPRRLGNAHPNIVPYQDFPTADGDMILTVGNDSQFRKFAELADHPEWADDPRFATNKARVANREVLIPLIRQATVLHTTAEWILSLERAGVPCGPINDLAQVFADPQVQARGLRVELPHPLAGTVPQVASPIRLSETPVEYRNPPPTLGQHTDEVLETLLGLDAAALERLRDGKVI | not soluble |
| MGMLVEGVWKDVWYDTKETKGHFKRSASQFRNWVTVDGAVGPSGEGGFEAEKDRYHLYVSFACPWAHRTLIFRKLKKLEDLISVSVVDPLMLENGWEFKPEGERTPGATQDHLFGSSTLWQVYTKADPTYSGRVTVPVLWDKKRGTIVSNESAEIIRMFNVAFNDLTGSDADYYPKALRAEIDALNDVIYDTVNNGVYKAGFATTQDAYQQNAVKVFETLDMLEDRLKDRRFLFGSEQTEADWRLFTTLVRFDPVYVGHFKCNIRRIHDYPHLTGYLRDLYQTPGVPDTVDMRHIKEHYYRSHRTINPTGIVPIGPELDLTMAHGREALS | soluble |
| MSQQYVYSMLRVSKVVPPQKTIIKDISLSFFPGAKIGLLGLNGAGKSTVLRIMAGVDKEFEGEAVPMGGIKIGYLPQEPELDPEKTVREEVESGLGEVAAAQKRLEEVYAEYANPDADFDALAEEQGRLEAIIAAGSSTGGGAEHELEIAADALRLPEW | not soluble |
| MGSDKIHHHHHHMASPEYEEYPSADGVMDDATLKDAEIRDWNWAVLPKGSVSTRFAAPSGSLAMVAMGKPQNPRVVLVPGATGSKEDFAVMMPELAEAGFYVLSYDLAGQYESAGAGPENLVPPRRHYDYELFVNDFVAVLESGGVPAHVVGYSFAAIVAQIAYSKRPELFRSFTLLSCPPLTGQCFRGISRFGRFTGLANGRVGAALMIWGIRRNVNKVSPNRLRFVRNRFRFTRRQSVRDIYGLMKNVPDLREHLAAATVPKFVAVGEHDLWPLHLHRQFAQSIGARISVYRGGHSPSETSPHQFGRDLLAMYAEGG | not soluble |
| MAHHHHHHMGTLEAQTQGPGSMLKSVGVILVLSSPSGCGKTTVANKLLEKQKNNIVKSVSVTTRAARKGEKEGKDYYFVDREEFLRLCSNGEIIEHAEVFGNFYGVPRKNLEDNVDKGVSTLLVIDWQGAFKFMEMMREHVVSIFIMPPSMEELRRRLCGRRADDSEVVEARLKGAAFEISHCEAYDYVIVNEDIEETADRISNILRAEQMKTCRQVGLRELLESRFPIED | soluble |
| MSLSVTIFSEFESEVRSYCRAFPAVFSRAKGEYLLAEDGRKFLDFFAGAGSLNYGHNDDDMIEAAISYMRQDGVLNGLDLNTSAKAEFIETFRTLVLQPRDLNYKLQFTGPTGANAVEAAMKLARKVTQRPDIACFSGGYHGMSLGALSVTANAVKRASLVVQVPGVVRLPYEGAIEGSVASQLRVLQDMLCRPGFGIDPPAAFLLECVQGEGGVNCASAEWLQGVAALARKLGALLIVDEIQTGCGRTGRFFSFEHACIEPDIICLSKSLGGGGLPFSLNLIKPEIDIWNPGEHNGTFRGNNLAMVMATAALRKYWATPHFAHEVEEKGLAVAACLKNALQAFDGQVRVVGKGLMIGLRFQHAEHAREASRRLFESGLLIEVCGPRNEVLKLMPVLTMDRQAMLAAASRIAACAQALLSRSLESETEGHHHHHH | soluble |
